From US10772928B2, “Modulation and detection of a neuronal alternative splicing regulatory network for treatment and diagnosis of neurological disorders” (The Governing Council of the University of Toronto, priority 2014, dated 2020)

T1: nSR100 (Mus musculus, UniProt Q8BKA3)
T1 construct: host or cells: mouse N2A cells
T1 sequence (Q8BKA3 1-608): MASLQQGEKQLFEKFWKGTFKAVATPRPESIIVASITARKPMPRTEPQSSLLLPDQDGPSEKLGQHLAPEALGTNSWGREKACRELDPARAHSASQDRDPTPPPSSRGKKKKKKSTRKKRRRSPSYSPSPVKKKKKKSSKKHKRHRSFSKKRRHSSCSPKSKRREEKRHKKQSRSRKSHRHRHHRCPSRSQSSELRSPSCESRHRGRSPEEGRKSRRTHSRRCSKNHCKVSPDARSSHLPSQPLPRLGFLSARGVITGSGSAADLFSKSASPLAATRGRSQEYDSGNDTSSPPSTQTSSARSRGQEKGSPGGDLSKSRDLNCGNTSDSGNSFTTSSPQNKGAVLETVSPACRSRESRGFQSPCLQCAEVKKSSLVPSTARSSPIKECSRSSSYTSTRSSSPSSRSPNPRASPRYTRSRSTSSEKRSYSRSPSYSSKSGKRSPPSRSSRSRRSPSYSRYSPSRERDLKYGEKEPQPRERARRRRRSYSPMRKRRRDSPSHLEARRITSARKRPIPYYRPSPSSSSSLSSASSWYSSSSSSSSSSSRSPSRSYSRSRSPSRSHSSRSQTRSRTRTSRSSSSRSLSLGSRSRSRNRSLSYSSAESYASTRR


Biological target: T1, nSR100
Assay: AP-MS nSR100 interaction partners from mouse N2A cells (Table 5)
Type: binding
Settings: for AvgP (average of the SAINT scores) / MaxP (maximal SAINT score): bait Srrm4; for FoldChange between the prey Avg spectra of the bait and control purifications: bait Srrm4, 0.1 added to prevent division by 0; for AvgSpec (average number of spectra per replicate): bait Srrm4, 2 replicates; for Spectra (number of spectra for the prey in the purification of the bait): AP-MS; for SpecSum: bait Srrm4, sum of spectra over 2 replicates
[1] = bait Srrm4, biological replicate 1 (first number of the cell)
[2] = bait Srrm4, biological replicate 2 (second number of the cell)

Description: By applying affinity purification coupled to mass-spectrometry (AP-MS), several interaction nSR100 partner proteins were detected that provide insight into mechanisms of post-translational regulation of nSR100 levels.

AvgP (average of the SAINT scores)	MaxP (maximal SAINT score)	FoldChange between the prey Avg spectra of the bait and control purifications	AvgSpec (average number of spectra per replicate)	Spectra (number of spectra for the prey in the purification of the bait) [1]	Spectra (number of spectra for the prey in the purification of the bait) [2]	SpecSum	Molecule
1	1	65	6.5	7	6	13	Poldip3 (protein, UniProt Q8BG81 2-420, looked up) Polymerase delta-interacting …: ADLSLDELIRKRGTAAKGRLSVRPGIGGVRSRVGIQHSLVNQPARTATFQQRFDARQKIGLSDARLKLGVKDAREKLLQKDARFRIKGKVQDAREMLNSRKQQGTVPQKPRQVADAREKISLKRRSPAAFTSPPIGTVTPALKLTKTIQVPQQKAMVPLHAHPAGMRINVVNNHQAKQNLYDLDEDDDIVVPVPPKQMKFAATGSLVHHMTGLSSSKLSMSKALPLTKVVQNDAYTAPVLPSSVRTKALTSMSRTLVNKEEPPKELPPAEPVLSPLEGTKMTVNNLHPRVTEEDIVELFCVCGALKRARLVHPGVAEVVFVKKDDAITAYKKYNNRCLDGQPMKCNLHMNGNVITSDQPILLRLSDSPSVKKESELPRRGNPASSNPPAEVDPDTVLRALFKSSGASVTTQPTEFKIKL
1	1	385	38.5	37	40	77	Cwc22 (protein, UniProt Q8C5N3 1-908, looked up) Pre-mRNA-splicing factor …: MKSSVAHMKSSGHNRRETHSSYRRSSSPEDRYTEQERSPRDRGYSDYSRSDYERSRRGYSYDDSMESRSRDREKRRERERDADHRKRSRKSPSPDRSPARGGGQSSPQEEPTWKKKKDELDPLLTRTGGAYIPPAKLRMMQEQITDKSSLAYQRMSWEALKKSINGLINKVNISNISIIIQELLQENIVRGRGLLSRSVLQAQSASPIFTHVYAALVAIINSKFPQIGELILKRLILNFRKGYRRNDKQLCLTASKFVAHLINQNVAHEVLCLEMLTLLLERPTDDSVEVAIGFLKECGLKLTQVSPRGINAIFERLRNILHESEIDKRVQYMIEVMFAVRKDGFKDHPVILEGLDLVEEDDQFTHMLPLEDDYNPEDVLNVFKMDPNFMENEEKYKAIKKEILDEGDSDSNTDQGAGSSEDEEEEDEEEEGEDEEGGQKVTIHDKTEINLVSFRRTIYLAIQSSLDFEECAHKLLKMEFAESQTKELCNMILDCCAQQRTYEKFFGLLAGRFCMLKKEYMESFESIFKEQYDTIHRLETNKLRNVAKMFAHLLYTDSLPWSVLECIKLSEETTTSSSRIFVKIFFQELCEYMGLPKLNARLKDETLQPFFEGLLPRDNPRNTRFAINFFTSIGLGGLTDELREHLKNTPKVIVAQKPEAEQKKPALTSSSSESSSASDSSDSESDSSESSSESSSDASDSSSSSSTQSSTSGITAHSAKGTRKKRQGKARGEEVDKLARGHQALERRREGGREDQRHQEGRTERARSERRRAQNSRDADWRDPLAKHIDDRSHENSHSRVGNGREQGSHREPEDRHGEPKKRRERRDSFSENEKQRSRNQDSDNVRRKDRSKSRERSRRHSGHKGDDARCQNSAERRWEKPGRRPEQSRESKRSQDRRREKSPTTQK
1	1	10	20	16	24	40	Csnk2a2 (protein, UniProt O54833 1-350, looked up) Casein kinase II subunit …: MPGPAAGSRARVYAEVNSLRSREYWDYEAHVPSWGNQDDYQLVRKLGRGKYSEVFEAINITNNERVVVKILKPVKKKKIKREVKILENLRGGTNIIKLIDTVKDPVSKTPALVFEYINNTDFKQLYQILTDFDIRFYMYELLKALDYCHSKGIMHRDVKPHNVMIDHQQKKLRLIDWGLAEFYHPAQEYNVRVASRYFKGPELLVDYQMYDYSLDMWSLGCMLASMIFRKEPFFHGQDNYDQLVRIAKVLGTDELYGYLKKYHIDLDPHFNDILGQHSRKRWENFIHSENRHLVSPEALDLLDKLLRYDHQQRLTAKEAMEHPYFYPVVKEQSQPCAENTVLSSGLTAAR
1	1	35	3.5	3	4	7	Ddx47 (protein, UniProt Q9CWX9 2-455, looked up) Probable ATP-dependent RNA …: AADEEPDSPSGALQTAAEEEETKTFKDLGVTDVLCEACDQLGWAKPTKIQIEAIPLALQGRDIIGLAETGSGKTGAFALPILNALLETPQRLFALVLTPTRELAFQISEQFEALGSSIGVQCAVIVGGIDSMSQSLALAKKPHIVIATPGRLIDHLENTKGFNLRALKYLVMDEADRILNMDFETEVDKILKVIPRDRKTFLFSATMTKKVQKLQRAALKNPVKCAVSSKYQTVEKLQQYYLFIPSKFKDTYLVYILNELAGNSFMIFCSTCNNTQRTALLLRNLGFTAIPLHGQMSQSKRLGSLNKFKAKARSILLATDVASRGLDIPHVDVVVNFDIPTHSKDYIHRVGRTARAGRSGKAITFVTQYDVELFQRIEHLIGKKLPVFPTQDEEVMMLTERVNEAQRFARMELREHGEKKKRKREDAGDDDDKEGAIGVRNKVAGGKMKKRKGR
1	1	75	7.5	5	10	15	Ccdc55 (protein, UniProt Q5NCR9 1-542, looked up) Nuclear speckle splicing …: MAIPGRQYGLILPKKTQPLHRVLQKPSVFGSDSDDDETSVSESLQREAAKKQAMKQTKLEIQKALAEDSTVYEYDSVYDEMQKKKEENNPKLLPGKDRKPKYIHNLLKAVEIRKKEQEKRMEKKIQREREMENGEFDDKEAFVTSAYKKKLEERAEEEEREKRAAALEAHLDVTKQKDLSGFYRHLLNQAVGEEAAPKSSFREARTVIKEEKLRGYPDETNSESRPPQQSCVLQRGAQEAEENPDADREFDDESSEDGEKRDHKVKSRGEDTGASMKHPKHHKNRAHSRSSSEERGLGTKHHSRGSQSRGHEHQDRQSRDQESCHKDRSHREEKSSHRHREASHKDHYWKKHEQEDKLKGREQEERQDREGKREKYSSREQERDRQRNDHDRYSEKEKKRKEKEEHTKARRERCEDSGKHREREKPEGHGQSSERHRDRRESSPRSRPKDDLDQERSSKARNTEKDKGEQGKPSHSETSLATKHRLAEERPEKGSEQERPPEAVSKFAKRSNEETVMSARDRYLARQMARINAKTYIEKEDD
1	1	4.61	53	58	48	106	Cdc37 (protein, UniProt Q61081 1-379, looked up) Hsp90 co-chaperone Cdc37: MVDYSVWDHIEVSDDEDETHPNIDTASLFRWRHQARVERMEQFQKEKEELDRGCRECKRKVAECQRKLKELEVAESDGQVELERLRAEAQQLRKEERSWEQKLEDMRKKEKNMPWNVDTLSKDGFSKSMVNTKPEKAEEDSEEAREQKHKTFVEKYEKQIKHFGMLHRWDDSQKYLSDNVHLVCEETANYLVIWCIDLEVEEKCALMEQVAHQTMVMQFILELAKSLKVDPRACFRQFFTKIKTADHQYMEGFKYELEAFKERVRGRAKLRIEKAMKEYEEEERKKRLGPGGLDPVEVYESLPEELQKCFDVKDVQMLQDAISKMDPTDAKYHMQRCIDSGLWVPNSKSGEAKEGEEAGPGDPLLEAVPKAGNEKDVSA
